In patent publication US20080063657A1 (VAXINNATE, published 2008):

Biological target: TLR5 (UniProt O60602 21-858)
Test: cell-based or functional assay

Chain of TLR5 (O60602 21-858 limits assumed): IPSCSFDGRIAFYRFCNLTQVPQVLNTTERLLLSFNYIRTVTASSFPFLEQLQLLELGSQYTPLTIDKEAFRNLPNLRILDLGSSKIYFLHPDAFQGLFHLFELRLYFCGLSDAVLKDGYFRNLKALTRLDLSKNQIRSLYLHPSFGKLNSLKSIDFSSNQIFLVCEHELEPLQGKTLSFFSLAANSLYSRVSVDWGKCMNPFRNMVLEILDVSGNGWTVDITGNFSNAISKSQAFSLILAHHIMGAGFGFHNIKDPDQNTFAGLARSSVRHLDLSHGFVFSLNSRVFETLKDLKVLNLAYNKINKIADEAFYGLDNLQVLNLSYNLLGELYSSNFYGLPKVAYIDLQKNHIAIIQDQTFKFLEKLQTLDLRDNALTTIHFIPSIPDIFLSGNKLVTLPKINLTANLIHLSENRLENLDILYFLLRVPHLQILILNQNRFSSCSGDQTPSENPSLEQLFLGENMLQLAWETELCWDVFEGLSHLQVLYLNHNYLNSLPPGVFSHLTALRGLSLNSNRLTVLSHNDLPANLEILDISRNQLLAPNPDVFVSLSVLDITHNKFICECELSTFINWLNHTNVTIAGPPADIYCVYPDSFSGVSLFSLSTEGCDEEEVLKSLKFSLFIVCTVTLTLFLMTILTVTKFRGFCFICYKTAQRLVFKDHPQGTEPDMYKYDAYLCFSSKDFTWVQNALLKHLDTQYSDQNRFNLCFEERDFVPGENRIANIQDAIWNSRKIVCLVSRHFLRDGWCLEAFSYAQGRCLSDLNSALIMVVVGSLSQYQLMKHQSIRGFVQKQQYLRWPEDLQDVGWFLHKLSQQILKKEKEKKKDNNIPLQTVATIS

B1: STF2.EIII+ fusion protein (other)
chain: MAQVINTNSLSLLTQNNLNKSQSALGTAIERLSSGLRINSAKDDAAGQAIANRFTANIKGLTQASRNANDGISIAQTTEGALNEINNNLQRVRELAVQSANSTNSQSDLDSIQAEITQRLNEIDRVSGQTQFNGVKVLAQDNTLTIQVGANDGETIDIDLKQINSQTLGLDSLNVQKAYDVKDTAVTTKAYANNGTTLDVSGLDDAAIKAATGGTNGTASVTGGAVKFDADNNKYFVTIGGFTGADAAKNGDYEVNVATDGTVTLAAGATKTTMPAGATTKTEVQELKDTPAVVSADAKNALIAGGVDATDANGAELVKMSYTDKNGKTIEGGYALKAGDKYYAADYDEATGAIKAKTTSYTAADGTTKTAANQLGGVDGKTEVVTIDGKTYNASKAAGHDFKAQPELAEAAAKTTENPLQKIDAALAQVDALRSDLGAVQNRFNSAITNLGNTVNNLSEARSRIEDSDYATEVSNMSRAQILQQAGTSVLAQANQVPQNVLSLLRKGNSKLEGQLEFPRTSMEKLQLKGTTYGVCSKAFKFLGTPADTGHGTVVLELQYTGTDGPCKVPISSVASLNDLTPVGRLVTVNPFVSVATANAKVLIELEPPFGDSYIVVGRGEQQINHHWHKSGSSIGK
With B1 the “TLR-5 EC50 (IL-8 in supernatant of HEK293 cells, ELISA), batch 052” value was greater than 5 µg/mL, the “TLR-5 EC50 (IL-8 in supernatant of HEK293 cells, ELISA), batch 054” value was 1.2 µg/mL and the “TLR-5 EC50 (IL-8 in supernatant of HEK293 cells, ELISA), batch 057” value was 0.198 µg/mL.
